Numbering of substitutions follows the chain as printed. Names may count otherwise.
B1: EBV205 (protein)
chain: MSNGDWGQSQRTRGTGPVRGIRTMDVNAPGGGSGGSALRILGTASCNQAHCKFGRFAGIQCVSNCVLYLVKSFLAGRPLTSRPELDEVLDEGARLDALMRQSGILKGHEMAQLTDVPSSVVLRGGGRVHIYRSAEIFGLVLFPAQIANSAVVQSLAEVLHGSYNGVAQFILYICDIYAGAIIIETDGSFYLFDPHCQKDAAPGTP
B2: EBV205 C61A (protein)
chain: B1 chain with C61A
B3: His6UL36^USP (protein)
chain: MGGGNNTNPGGPVHKQAGSLASRAHMIAGTPPHSTMERGGDRDIVVTGARNQFAPDLEPGGSVSCMRSSLSFLSLIFDVGPRDVLSAEAIEGCLVEGGEWTRATAGPGPPRMCSIVELPNFLEYPGARGGLRCVFSRVYGEVGFFGEPAAGLLETQCPAHTFFAGPWALRPLSYTLLTIGPLGMGLFRDGDTAYLFDPHGLPEGTPAFIAKVRAGDMYPYLTYYTRDRPDVRWAGAMVFFVPSGPEPAAPADLTAAALHLYGASETYLQDEAFSERRVAITHPLRGEIAGLGEPCVGVGPREGVGGPGPHPPTAAQSPPPTRARRDDRASETSRGTAGPSAKPEAKRPNRAPDDVWAVALKGTPPTDPPSADPPSADPPSAIPPPPPSAPKTPAAEAAEEDDDDMRVLEMGVVPVGRHRARYSAGLPKRRRPTWTPPSSVEDLTSGEKTKRSAPPAKTKKKSTPKGKTPVGAAVPASVPEPVLASAPPDPAGPPVAEAGEDDGPTVPASSQALEALKTRRSPEPPGADLAQLF

Legend:
[1] = target: Ub C-terminal 7-amido-4-methylcoumarin, P0CG47
Sequence of Ub C-terminal 7-amido-4-methylcoumarin, P0CG47 (P0CG47 whole entry, looked up): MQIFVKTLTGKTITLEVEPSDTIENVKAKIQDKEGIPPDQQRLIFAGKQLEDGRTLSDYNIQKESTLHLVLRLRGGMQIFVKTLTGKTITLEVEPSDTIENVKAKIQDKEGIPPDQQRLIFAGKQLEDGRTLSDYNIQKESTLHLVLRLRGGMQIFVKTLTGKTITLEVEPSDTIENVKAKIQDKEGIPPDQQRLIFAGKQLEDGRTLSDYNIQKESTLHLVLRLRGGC

[2] = target: His-tagged Lys^48-linked polyubiquitin, P0CG47
Sequence of His-tagged Lys^48-linked polyubiquitin, P0CG47 (P0CG47 whole entry, looked up): as above

[3] = target: isopeptide-linked Ub-peptide conjugate, P0CG47
Sequence of isopeptide-linked Ub-peptide conjugate, P0CG47 (P0CG47 whole entry, looked up, tested part not stated): as the sequence (P0CG47 whole entry, looked up) above

[4] = target: His-tagged Lys^63-linked polyubiquitin, P0CG47
Sequence of His-tagged Lys^63-linked polyubiquitin, P0CG47 (P0CG47 whole entry, looked up): as above

[5] = target: isopeptide-linked ISG15-peptide conjugate, P05161
Sequence of isopeptide-linked ISG15-peptide conjugate, P05161 (P05161 1-157): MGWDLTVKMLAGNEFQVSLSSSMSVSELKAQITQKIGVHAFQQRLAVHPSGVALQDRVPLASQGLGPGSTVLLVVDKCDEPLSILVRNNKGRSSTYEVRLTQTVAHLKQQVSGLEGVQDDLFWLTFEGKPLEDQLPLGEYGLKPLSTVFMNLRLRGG

[6] = target: isopeptide-linked SUMO-1-peptide conjugate, P63165
Sequence of isopeptide-linked SUMO-1-peptide conjugate, P63165 (P63165 1-97): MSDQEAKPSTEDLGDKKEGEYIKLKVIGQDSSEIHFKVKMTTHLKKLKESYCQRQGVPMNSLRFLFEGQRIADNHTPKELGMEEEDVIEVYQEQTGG

[7] = target: isopeptide-linked Nedd8-peptide conjugate, Q15843
Sequence of isopeptide-linked Nedd8-peptide conjugate, Q15843 (Q15843 whole entry, looked up, tested part not stated): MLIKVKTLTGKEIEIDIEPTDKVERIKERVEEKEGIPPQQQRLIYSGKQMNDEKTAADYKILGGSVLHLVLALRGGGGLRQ

Row | Protein | UbAMC hydrolysis [1] | polyubiquitin chain depolymerization, anti-His immunoblot [2] | Ub-AMC cleavage, turnover number [1] | isopeptidase assay, loss of biotin signal [3] | polyubiquitin chain depolymerization, anti-His immunoblot [4] | isopeptidase assay, loss of biotin signal [5] | isopeptidase assay, loss of biotin signal [6] | isopeptidase assay, loss of biotin signal [7]
1 | B1 | efficiently hydrolyzed UbAMC | – | – | – | – | – | – | –
2 | B2 | absent in the case of active site mutants | – | – | – | – | – | – | –
3 | B3 | – | we observed deubiquitination of Lys^48-linked polyUb only | ~6 min⁻¹ | results in cleavage of the Ub-peptide conjugate only | The failure of UL36^USP to cleave Lys^63-linked polyUb | Isopeptide-linked conjugates of Nedd8, ISG15 or SUMO-1 are not substrates for UL36^USP | Isopeptide-linked conjugates of Nedd8, ISG15 or SUMO-1 are not substrates for UL36^USP | Isopeptide-linked conjugates of Nedd8, ISG15 or SUMO-1 are not substrates for UL36^USP
